According to patent US12233115B2, “Long-acting parathyroid hormone” (Extend Biosciences, Inc., priority 2022, dated 2025):
Several values for one entry are separate records, joined by “and”; a condition that tells them apart may be missing. Equal values may be shown once.

System: Thyroparathyroidectomized (TPTx) rats
Assay: 28-day pharmacodynamic study in thyroparathyroidectomized (TPTx) rats
Type: in vivo, rat
Conditions: for % Increase in Serum Calcium, Cumulative: Days 1, 12, 27, relative to TPTx/vehicle; for increase in serum calcium compared to TPTx controls (in words): daily SC dosing (EXT607 1, 3, 10 nmol/kg; PTH peptides 10 nmol/kg); for decrease in serum phosphate (in words): daily SC dosing (EXT607 all dose levels; PTH peptides 10 nmol/kg), from Day 12
Description: 28-day Pharmacodynamic Study of EXT607 in TPTx Rats. Thyroparathyroidectomized (TPTx) rats are a model for hypoparathyroidism. To produce TPTx rats, the thyroid and parathyroid glands were surgically resected and the rats were given L-thyroxine to compensate for the loss of their thyroid. Due to the absence of PTH, TPTx rats had lower levels of serum calcium and higher levels of serum phosphate.
Each group consisted of 10 female rats split into two cohorts of 5 animals for blood sampling purposes. On days 1, 12, and 27, blood (˜0.2 ml) was collected into serum separation tubes at t=0 (pre-dose), 2, 6, 10, and 24 h. The samples were processed into serum by standard methods and analyzed for serum total calcium and phosphate.
Calcium levels at 3 and 10 nmol/kg (20 and 60 μg/kg) were at or just below the normal range of calcium levels for healthy animals. […] For each timepoint, the percent increase in serum calcium relative to the TPTx vehicle control group (Group 2) was determined and daily averages were calculated (Table 9B). Over the three days sampled (Days 1, 12, and 27), […] increased serum calcium an average of 17, 28, and 37% at 1, 3, and 10 nmol/kg, respectively.
At each timepoint, the percent decrease in serum phosphate relative to the TPTx vehicle control group (Group 2) was determined, and daily averages were calculated (Table 9C).

[1] = 10 nmol/kg SC daily, Day 1, relative to TPTx/vehicle
[2] = 10 nmol/kg SC daily, Day 12, relative to TPTx/vehicle
[3] = 10 nmol/kg SC daily, Day 27, relative to TPTx/vehicle

Molecule	% Decrease in Serum Phosphate, Daily Average [1] [%]	% Increase in Serum Calcium, Daily Average [1] [%]	% Decrease in Serum Phosphate, Daily Average [2] [%]	% Increase in Serum Calcium, Daily Average [2] [%]	% Decrease in Serum Phosphate, Daily Average [3] [%]	% Increase in Serum Calcium, Daily Average [3] [%]	% Increase in Serum Calcium, Cumulative (10 nmol/kg SC daily)	increase in serum calcium compared to TPTx controls (in words)	decrease in serum phosphate (in words)	% Decrease in Serum Phosphate, Combined (10 nmol/kg SC daily, Days 12, 27, relative to TPTx/vehicle) [%]
CC[C@H](C)[C@H](NC(=O)[C@H](CCC(=O)O)NC(=O)[C@H](CO)NC(=O)[C@@H](NC(=O)[C@@H](N)CO)C(C)C)C(=O)N[C@@H](CCC(N)=O)C(=O)N[C@@H](CC(C)C)C(=O)N[C@@H](CCSC)C(=O)N[C@@H](Cc1c[nH]cn1)C(=O)N[C@@H](CC(N)=O)C(=O)N[C@@H](CC(C)C)C(=O)NCC(=O)N[C@@H](CCCCN)C(=O)N[C@@H](Cc1c[nH]cn1)C(=O)N[C@@H](CC(C)C)C(=O)N[C@@H](CC(N)=O)C(=O)N[C@@H](CO)C(=O)N[C@@H](CCSC)C(=O)N[C@@H](CCC(=O)O)C(=O)N[C@@H](CCCNC(=N)N)C(=O)N[C@H](C(=O)N[C@@H](CCC(=O)O)C(=O)N[C@@H](Cc1c[nH]c2ccccc12)C(=O)N[C@@H](CC(C)C)C(=O)N[C@@H](CCCNC(=N)N)C(=O)N[C@@H](CCCCN)C(=O)N[C@@H](CCCCN)C(=O)N[C@@H](CC(C)C)C(=O)N[C@@H](CCC(N)=O)C(=O)N[C@@H](CC(=O)O)C(=O)N[C@H](C(=O)N[C@@H](Cc1c[nH]cn1)C(=O)N[C@@H](CC(N)=O)C(=O)N[C@@H](Cc1ccccc1)C(=O)O)C(C)C)C(C)C [PTH(1-34), reference compound]	−1.7	8.0	9.1	12	13	6.4	9% and 8.7%	minimal and did not reach statistical significance	Occasional decreases	–
PTH(1-84): wild-type full-length parathyroid hormone, 84 amino acids, SEQ ID NO: 2 (protein, UniProt P01270 32-115, looked up, Parathyroid hormone) Parathyroid hormone: SVSEIQLMHNLGKHLNSMERVEWLRKKLQDVHNFVALGAPLAPRDAGSQRPRKKEDNVLVESHEKSLGEADKADVNVLTKAKSQ	0.2	7.0	17	14	17	4.1	9% and 8.5%	minimal and did not reach statistical significance with the exception of two isolated timepoints	Slight decreases	17
